The test system of series [1] is CHD4 C1bC2a (SANT-SLIDE) (Homo sapiens). In words: MST. To be noted: 120 mM NaCl, 1 mM TCEP, no Mg2+; CHD4: 50 mM HEPES pH 7.5, NaCl up to 50 mM and MgCl2 up to 3 mM (from dilution buffer), 100 ng/uL BSA, 0.5% glycerol, 25 nM Cy5 substrate; C1bC2a: 20 mM HEPES ….
A further series relates to CHD4 WT (Homo sapiens). In words: MST. To be noted: 3 mM Mg2+ in dilution buffer; CHD4: 50 mM HEPES pH 7.5, NaCl up to 50 mM and MgCl2 up to 3 mM (from dilution buffer), 100 ng/uL BSA, 0.5% glycerol, 25 nM Cy5 substrate; C1bC2a: 20 mM HEPES ….
For series [2], the system named is CHD4(1-1230) (Homo sapiens). Put plainly: MST. The note with it: CHD4: 50 mM HEPES pH 7.5, NaCl up to 50 mM and MgCl2 up to 3 mM (from dilution buffer), 100 ng/uL BSA, 0.5% glycerol, 25 nM Cy5 substrate; C1bC2a: 20 mM HEPES ….
In series [3] the test system is CHD4(1-1380) (Homo sapiens). Put plainly: MST. The note with it: CHD4: 50 mM HEPES pH 7.5, NaCl up to 50 mM and MgCl2 up to 3 mM (from dilution buffer), 100 ng/uL BSA, 0.5% glycerol, 25 nM Cy5 substrate; C1bC2a: 20 mM HEPES ….
Series [4] deals with CHD4(1-1810) (Homo sapiens). Put plainly: MST. To be noted: CHD4: 50 mM HEPES pH 7.5, NaCl up to 50 mM and MgCl2 up to 3 mM (from dilution buffer), 100 ng/uL BSA, 0.5% glycerol, 25 nM Cy5 substrate; C1bC2a: 20 mM HEPES ….
For series [5], the system named is CHD4-IDR2-del- (Homo sapiens). Put plainly: MST. The note with it: 3 mM Mg2+ in dilution buffer; CHD4: 50 mM HEPES pH 7.5, NaCl up to 50 mM and MgCl2 up to 3 mM (from dilution buffer), 100 ng/uL BSA, 0.5% glycerol, 25 nM Cy5 substrate; C1bC2a: 20 mM HEPES ….
In series [6] the test system is CHD4-IDR2-scram (Homo sapiens). In words: MST. The note with it: 3 mM Mg2+ in dilution buffer; CHD4: 50 mM HEPES pH 7.5, NaCl up to 50 mM and MgCl2 up to 3 mM (from dilution buffer), 100 ng/uL BSA, 0.5% glycerol, 25 nM Cy5 substrate; C1bC2a: 20 mM HEPES ….
The target of series [7] is 46w60 nucleosome (recombinant human histone octamer on Widom 601 DNA with 46-bp and 60-bp flanks), Cy5-labelled (human) (UniProt P0C0S8). In words: MST; CHD4 titrated (1:2 serial dilution) into 25 nM Cy5-labelled 46w60 nucleosome; 50 mM HEPES pH 7.5, 50 mM NaCl, 3 mM MgCl2 dilution buffer, 100 ng/µL BSA, 0.5% glycerol; 10 min on ice; Monolith NT.115, 80% LED, 20% MST power; fit to a 1:1 binding isotherm.

CHD4(1–1230), sequence (Q14839 1-1230): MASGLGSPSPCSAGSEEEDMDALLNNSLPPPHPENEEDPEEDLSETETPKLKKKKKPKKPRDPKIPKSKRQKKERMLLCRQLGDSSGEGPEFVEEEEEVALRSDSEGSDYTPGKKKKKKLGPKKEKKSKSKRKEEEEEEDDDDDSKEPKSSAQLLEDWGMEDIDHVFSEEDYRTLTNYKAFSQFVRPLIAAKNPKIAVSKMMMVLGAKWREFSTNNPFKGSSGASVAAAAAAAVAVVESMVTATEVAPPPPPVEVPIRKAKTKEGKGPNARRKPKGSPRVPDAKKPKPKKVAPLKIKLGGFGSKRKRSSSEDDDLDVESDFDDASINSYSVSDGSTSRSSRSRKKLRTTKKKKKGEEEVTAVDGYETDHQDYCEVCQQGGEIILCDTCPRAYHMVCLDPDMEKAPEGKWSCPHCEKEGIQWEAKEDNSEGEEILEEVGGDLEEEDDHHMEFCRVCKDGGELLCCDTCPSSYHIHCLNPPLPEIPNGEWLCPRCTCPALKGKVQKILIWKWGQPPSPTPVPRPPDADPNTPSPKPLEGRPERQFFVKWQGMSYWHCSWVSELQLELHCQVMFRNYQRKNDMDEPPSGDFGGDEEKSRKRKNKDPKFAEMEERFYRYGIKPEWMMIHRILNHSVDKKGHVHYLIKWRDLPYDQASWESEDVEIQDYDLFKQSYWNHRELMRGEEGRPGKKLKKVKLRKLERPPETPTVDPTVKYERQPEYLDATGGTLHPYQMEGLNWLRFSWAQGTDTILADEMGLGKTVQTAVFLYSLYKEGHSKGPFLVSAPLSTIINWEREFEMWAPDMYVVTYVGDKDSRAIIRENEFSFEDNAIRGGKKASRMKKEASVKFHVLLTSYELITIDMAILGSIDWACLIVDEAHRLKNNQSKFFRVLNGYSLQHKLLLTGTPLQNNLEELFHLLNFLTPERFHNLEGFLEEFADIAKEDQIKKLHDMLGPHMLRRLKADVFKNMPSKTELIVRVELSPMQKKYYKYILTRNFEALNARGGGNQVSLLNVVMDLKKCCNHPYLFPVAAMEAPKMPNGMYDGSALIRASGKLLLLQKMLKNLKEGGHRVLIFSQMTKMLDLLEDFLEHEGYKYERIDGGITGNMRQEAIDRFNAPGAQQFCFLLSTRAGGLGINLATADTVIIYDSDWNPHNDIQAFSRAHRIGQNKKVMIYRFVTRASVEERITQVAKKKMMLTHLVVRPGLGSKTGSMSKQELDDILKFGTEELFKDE
WT CHD4 (human chromodomain helicase DNA-binding protein 4, full length), sequence (Q14839 whole entry): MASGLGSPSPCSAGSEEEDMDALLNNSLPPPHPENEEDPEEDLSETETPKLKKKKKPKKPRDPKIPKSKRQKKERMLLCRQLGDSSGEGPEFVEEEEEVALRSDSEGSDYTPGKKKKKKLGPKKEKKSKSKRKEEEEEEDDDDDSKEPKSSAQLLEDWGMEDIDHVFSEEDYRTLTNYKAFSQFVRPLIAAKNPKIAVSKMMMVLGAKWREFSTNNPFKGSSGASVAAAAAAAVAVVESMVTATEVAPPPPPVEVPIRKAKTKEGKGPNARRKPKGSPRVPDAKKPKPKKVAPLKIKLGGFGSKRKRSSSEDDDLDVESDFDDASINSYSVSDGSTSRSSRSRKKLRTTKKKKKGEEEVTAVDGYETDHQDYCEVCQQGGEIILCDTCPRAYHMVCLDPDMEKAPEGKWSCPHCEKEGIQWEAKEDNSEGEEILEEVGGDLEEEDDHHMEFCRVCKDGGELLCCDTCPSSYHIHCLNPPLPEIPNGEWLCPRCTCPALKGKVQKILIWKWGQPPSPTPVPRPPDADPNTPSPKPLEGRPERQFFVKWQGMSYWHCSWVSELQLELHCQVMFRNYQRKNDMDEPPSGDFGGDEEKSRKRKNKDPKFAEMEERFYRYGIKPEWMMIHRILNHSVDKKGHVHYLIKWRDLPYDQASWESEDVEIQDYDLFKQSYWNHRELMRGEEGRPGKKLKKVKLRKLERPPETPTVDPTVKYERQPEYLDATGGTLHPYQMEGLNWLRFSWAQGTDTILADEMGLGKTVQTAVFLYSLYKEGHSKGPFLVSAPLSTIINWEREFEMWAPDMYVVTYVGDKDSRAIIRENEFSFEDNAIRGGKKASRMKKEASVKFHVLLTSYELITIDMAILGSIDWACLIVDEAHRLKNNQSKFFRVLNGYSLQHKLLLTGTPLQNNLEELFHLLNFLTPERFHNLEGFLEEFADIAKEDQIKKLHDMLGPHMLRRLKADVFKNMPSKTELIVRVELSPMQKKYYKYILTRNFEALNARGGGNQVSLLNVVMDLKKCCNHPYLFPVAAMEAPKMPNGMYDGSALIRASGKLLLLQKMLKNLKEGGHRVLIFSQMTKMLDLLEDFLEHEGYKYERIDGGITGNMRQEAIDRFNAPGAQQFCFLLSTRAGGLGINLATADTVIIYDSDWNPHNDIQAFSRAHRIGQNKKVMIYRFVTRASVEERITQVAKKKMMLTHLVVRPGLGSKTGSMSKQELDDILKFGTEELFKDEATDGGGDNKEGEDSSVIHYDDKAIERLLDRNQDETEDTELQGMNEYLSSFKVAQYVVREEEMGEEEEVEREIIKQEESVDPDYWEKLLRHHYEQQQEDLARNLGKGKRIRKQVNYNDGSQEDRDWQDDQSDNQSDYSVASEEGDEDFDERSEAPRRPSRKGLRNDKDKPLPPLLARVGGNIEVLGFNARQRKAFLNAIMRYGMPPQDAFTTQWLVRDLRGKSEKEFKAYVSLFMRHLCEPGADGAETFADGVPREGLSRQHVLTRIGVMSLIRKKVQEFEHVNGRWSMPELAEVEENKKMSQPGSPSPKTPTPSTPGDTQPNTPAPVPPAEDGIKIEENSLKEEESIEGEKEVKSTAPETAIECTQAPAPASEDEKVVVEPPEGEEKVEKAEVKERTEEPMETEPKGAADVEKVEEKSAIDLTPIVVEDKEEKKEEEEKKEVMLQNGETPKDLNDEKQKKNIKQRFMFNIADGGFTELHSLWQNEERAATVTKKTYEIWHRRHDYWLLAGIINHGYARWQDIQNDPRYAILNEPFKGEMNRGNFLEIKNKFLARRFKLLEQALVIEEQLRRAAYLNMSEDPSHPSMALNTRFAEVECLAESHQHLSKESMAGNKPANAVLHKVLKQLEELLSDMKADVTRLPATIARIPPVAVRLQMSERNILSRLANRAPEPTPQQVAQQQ
CHD4-IDR2-del+, sequence (Q14839 whole entry, one chain of several): as the sequence (Q14839 whole entry) above
CHD4-IDR2-del–, sequence (Q14839 whole entry, one chain of several): as the sequence (Q14839 whole entry) above
CHD4(1–1540), sequence (Q14839 1-1540): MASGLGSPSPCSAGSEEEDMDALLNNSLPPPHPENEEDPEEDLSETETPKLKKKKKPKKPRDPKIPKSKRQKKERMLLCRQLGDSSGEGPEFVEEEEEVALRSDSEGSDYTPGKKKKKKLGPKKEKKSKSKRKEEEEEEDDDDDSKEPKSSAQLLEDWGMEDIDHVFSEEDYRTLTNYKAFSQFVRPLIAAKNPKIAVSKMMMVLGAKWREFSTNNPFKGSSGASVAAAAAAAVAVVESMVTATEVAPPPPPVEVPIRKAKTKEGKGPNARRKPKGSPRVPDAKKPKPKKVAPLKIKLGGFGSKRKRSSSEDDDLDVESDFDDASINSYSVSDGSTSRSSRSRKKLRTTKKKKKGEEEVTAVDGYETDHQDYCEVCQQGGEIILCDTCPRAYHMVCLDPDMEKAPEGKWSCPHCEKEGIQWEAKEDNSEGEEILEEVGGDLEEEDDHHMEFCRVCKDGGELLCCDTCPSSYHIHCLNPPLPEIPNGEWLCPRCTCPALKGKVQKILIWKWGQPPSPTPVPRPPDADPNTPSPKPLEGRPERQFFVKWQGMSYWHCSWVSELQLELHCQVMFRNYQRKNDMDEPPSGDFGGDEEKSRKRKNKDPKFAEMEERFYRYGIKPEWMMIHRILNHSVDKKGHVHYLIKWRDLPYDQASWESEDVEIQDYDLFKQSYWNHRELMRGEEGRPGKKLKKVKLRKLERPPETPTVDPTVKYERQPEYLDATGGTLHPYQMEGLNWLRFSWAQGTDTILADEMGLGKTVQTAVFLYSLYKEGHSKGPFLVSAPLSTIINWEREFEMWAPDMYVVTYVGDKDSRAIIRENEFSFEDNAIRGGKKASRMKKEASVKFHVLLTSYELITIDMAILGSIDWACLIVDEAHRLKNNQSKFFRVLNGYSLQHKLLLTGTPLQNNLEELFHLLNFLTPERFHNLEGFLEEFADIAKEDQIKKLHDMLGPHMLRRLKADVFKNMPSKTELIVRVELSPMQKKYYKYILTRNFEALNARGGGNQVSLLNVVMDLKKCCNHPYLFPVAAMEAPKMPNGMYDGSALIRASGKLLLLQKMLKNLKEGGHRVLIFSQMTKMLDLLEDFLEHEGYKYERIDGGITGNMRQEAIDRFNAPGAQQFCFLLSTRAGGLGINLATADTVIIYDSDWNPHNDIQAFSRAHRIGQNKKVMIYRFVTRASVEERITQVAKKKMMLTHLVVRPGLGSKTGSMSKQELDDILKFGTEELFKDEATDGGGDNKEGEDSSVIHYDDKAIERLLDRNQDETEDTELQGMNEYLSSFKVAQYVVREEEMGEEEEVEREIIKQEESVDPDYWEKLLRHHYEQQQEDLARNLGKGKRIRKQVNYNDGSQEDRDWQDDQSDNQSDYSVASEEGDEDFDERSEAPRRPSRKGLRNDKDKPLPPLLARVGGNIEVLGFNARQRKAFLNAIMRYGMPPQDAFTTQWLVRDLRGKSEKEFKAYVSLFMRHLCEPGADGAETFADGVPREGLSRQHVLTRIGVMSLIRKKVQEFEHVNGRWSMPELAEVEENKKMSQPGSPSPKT

46w60 DNA (naked): the values for the Kd (in series [1]; in the series on CHD4 WT (Homo sapiens)) were 10000 nM and 350 nM, respectively.

Consider 46w60 nucleosome, for which the Kd was 45 nM in the series on CHD4 WT (Homo sapiens); 210 nM in series [2]; 430 nM in series [3]; 150 nM in series [4]; 20 nM in series [5]; 100 nM in series [6].

Regarding “CHD4(1–1230) (from UniProt Q14839 1-1230) (domain or fragment)”, in series [7], the fold decrease in affinity against WT CHD4 came out at 5 fold and the fold increase in binding against CHD4(1–1380) was 2 fold.

“CHD4(1–1380) (from UniProt Q14839 1-1380) (domain or fragment)”: in series [7], the fold decrease in substrate binding against WT CHD4 was determined as 10 fold.

For “CHD4(1–1540) (from UniProt Q14839 1-1540) (domain or fragment)”, the fold decrease in nucleosome binding against WT CHD4 in series [7] was determined as 4 fold.

Consider “CHD4(1–1810) (from UniProt Q14839 1-1810) (domain or fragment)”, for which, in series [7], the fold decrease in affinity against WT CHD4 was determined as 3 fold.

On to “CHD4(355–1912) (from UniProt Q14839 355-1912) (domain or fragment)”, for which, in series [7], the fold decrease in substrate binding affinity against WT CHD4 stood at 3 fold.

Turning to “CHD4-IDR2-del+ (from UniProt Q14839 1-226; Q14839 363-1912) (enzyme)”, in series [7], the fold decrease in affinity against WT CHD4 is 5 fold.

For “CHD4-IDR2-del– (from UniProt Q14839 1-226; Q14839 363-1912) (enzyme)”, the Kd in series [7] is 20 nM.

“WT CHD4 (human chromodomain helicase DNA-binding protein 4, full length) (from UniProt Q14839 1-1912) (enzyme)”: in series [7], the Kd turned out to be 45 nM.

As usually defined, the Kd is a measure of binding affinity in units of concentration.

These data come from article PMC9726900.
